From publication PMC3795039 come the findings set out here.

The target of assay [1] is GST-NUP153C (human) (UniProt P49790). As to the kind of experiment: pull-down; 0.47 µM GST-NUP153C pre-bound to glutathione-sepharose beads, 0.8 µM his-tagged IN, PD buffer (150 mM NaCl, 25 mM Tris-HCl pH 7.4, 5 mM MgCl2, 5 mM DTT, 0.1% NP-40), BSA 5 µg, 2 h 4°C; Coomassie and anti-his blot.
The target of assay [2] is his-tagged HIV-1 CAN Q63A/Q67A (HIV-1 (NL4-3)). Nature of the assay: pull-down; Ni-NTA beads, 20 µM his-tagged CA or CAN, 0.5 µM purified NUP153C, 25 mM Tris-HCl pH 8.0, 150 mM NaCl, 0.1% NP-40, 1 h room temperature; Coomassie or SYPRO Ruby stain.
For assay [3], the target named is full length his-tagged wild-type HIV-1 CA (HIV-1 (NL4-3)). The description is as above.
Assay [4] deals with HIV-1 CA-NC fusion protein assembled into tube-like complexes (HIV-1). As to the kind of experiment: co-sedimentation; competition: 4 µM purified WT or mutant NUP153C added to 0.8 µM assembled CA-NC and CPSF6-HA 293T extract; read-out is CPSF6 in the pellet.
Assay [5] shares this target. Nature of the assay: co-sedimentation; purified tag-free NUP153C or GST incubated with assembled HIV-1 CA-NC complexes, pelleted through a sucrose cushion; Coomassie stain.
For assay [6], the target named is T1, his-tagged HIV-1 CA N-terminal domain (CAN) (HIV-1 (NL4-3)), P12493. Nature of the assay: pull-down; Ni-NTA beads, 20 µM his-tagged CA or CAN, 0.5 µM purified NUP153C, 25 mM Tris-HCl pH 8.0, 150 mM NaCl, 0.1% NP-40, 1 h room temperature; Coomassie or SYPRO Ruby stain. To be noted: remark: other sources report otherwise.
The target in assay [7] is T1, his-tagged HIV-1 CA N-terminal domain …. Nature of the assay: pull-down; saturation curves: 3 µl Ni-NTA beads, 0.5 µM purified WT or mutant NUP153C, HIV-1 CAN from 2 µM to 200 µM in half-log steps, 150 mM NaCl, 25 mM Tris-HCl pH 8.0, 0.1% NP-40; percent bound by SYPRO Ruby; one-site saturation fit, Kd at half-maximal binding. To be noted: remark: other sources report otherwise.

his-tagged FIV integrase (IN) (enzyme) displayed a percent of input pulled down in assay [1] of 5.55%.

With “his-tagged HIV-1 integrase (IN) (enzyme)”, the percent of input pulled down in assay [1] is 0.85%.

In assay [2], “recombinant tag-free NUP153C (residues 896–1475) (from UniProt P49790-1 896-1475) (domain or fragment)” came in with a fold decrease of binding against WT CAN of 1.3 fold. The same molecule showed a percent of input pulled down in assay [3] of 30%. Besides, the fold decrease of CPSF6 binding to CA-NC with 4 µM NUP153C in assay [4] is 7 fold. The same molecule gave a percent of input recovered in the pellet in assay [5] of 40%.

B1: recombinant tag-free NUP153C (residues 896–1475), P49790-1 896-1475 (domain or fragment)
chain: NSAASSSFKFGVSSSSSGPSQTLTSTGNFKFGDQGGFKIGVSSDSGSINPMSEGFKFSKPIGDFKFGVSSESKPEEVKKDSKNDNFKFGLSSGLSNPVSLTPFQFGVSNLGQEEKKEELPKSSSAGFSFGTGVINSTPAPANTIVTSENKSSFNLGTIETKSASVAPFTCKTSEAKKEEMPATKGGFSFGNVEPASLPSASVFVLGRTEEKQQEPVTSTSLVFGKKADNEEPKCQPVFSFGNSEQTKDENSSKSTFSFSMTKPSEKESEQPAKATFAFGAQTSTTADQGAAKPVFSFLNNSSSSSSTPATSAGGGIFGSSTSSSNPPVATFVFGQSSNPVSSSAFGNTAESSTSQSLLFSQDSKLATTSSTGTAVTPFVFGPGASSNNTTTSGFGFGATTTSSSAGSSFVFGTGPSAPSASPAFGANQTPTFGQSQGASQPNPPGFGSISSSTALFPTGSQPAPPTFGTVSSSSQPPVFGQQPSQSAFGSGTTPNSSSAFQFGSSTTNFNFTNNSPSGVFTFGANSSTPAASAQPSGSGGFPFNQSPAAFTVGSNGKNVFSSSGTSFSGRKIKTAVRRRK
With B1, the percent of input pulled down in assay [6] turned out to be 30%. This molecule also had a Kd in assay [7] of 28.3 µM.
